# T1: PanZ(N45A)-His (E. coli, UniProt P37613 1-127, N45A)
# T1 sequence: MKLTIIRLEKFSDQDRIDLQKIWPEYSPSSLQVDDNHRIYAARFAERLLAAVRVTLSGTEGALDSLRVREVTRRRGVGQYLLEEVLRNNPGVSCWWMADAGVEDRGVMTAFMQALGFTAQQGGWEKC
# B1: PanD, unactivated proenzyme (native, untagged) (enzyme, E. coli, UniProt P0A790 1-126, looked up)
# chain: MIRTMLQGKLHRVKVTHADLHYEGSCAIDQDFLDAAGILENEAIDIWNVTNGKRFSTYAIAAERGSRIISVNGAAAHCASVGDIVIIASFVTMPDEEARTWRPNVAYFEGDNEMKRTAKAIPVQVA
# How the values were obtained:
# PanZ(N45A)-His = biological target: T1, PanZ(N45A)-His; test: SEC
# SEC = biological target: the molecule itself; test: SEC
binder,measurement,setting,value
B1,binding result,PanZ(N45A)-His,binds
same,stoichiometry N,SEC,4
